From patent US20110144312A1 (Kyowa Kirin, published 2011)

Key:
Ac-TVTNTRFSVD-NH2 = target: T1, Ac-TVTNTRFSVD-NH2 (human); assay: dot blot on PVDF or nitrocellulose membrane
T1 peptide: Ac-TVTNTRFSVD-NH2
Protocol: (§1) Methods to detect antibody binding to peptides derived from the human IL-10Rα sequence: Multiple methods were employed to detect binding of anti-human IL-10Rα antibodies to peptides derived from the extracellular domain of human IL-10Rα that have been reported by Reineke, et al. (Reineke, et al., Protein Sci 7:951 (1998)) to be included in the IL-10 binding site of the receptor. The following amide synthesized peptides were tested: Ac-[…]-NH2, Ac-[…]-NH2, Ac-[…]-NH2, Ac-[…]-NH2, Ac-[…]-NH2 (SEQ ID NO. 81-85). In addition, the following biotinylated peptides were tested: Biotin-[…]-NH2, Biotin-[…]-NH2 (SEQ ID NO. 86-87). The amide peptides were synthesized by A&A Labs, LLC (San Diego, Calif.) and the biotinylated peptides were synthesized by GenScript (Piscataway, N.J.) both at >95% purity and reconstituted at 20 mg/ml in DMSO. In one assay design peptides were spotted at 5 μg/spot in PBS onto PVDF membranes or nitrocellulose membranes that had been prepared according to the manufacturer's instructions. The membranes were incubated with anti-IL-10Rα antibodies using standard Western blotting methods (e.g. Towbin, et al., Proc Natl Acad Sci 76:4350 (1979)). Native human IL-10Ra:hFc and heat denatured human IL-10Ra:hFc were also spotted at 1 μg/spot on the membranes as controls. Negative controls included an irrelevant peptide and isotype controls. […] None of the antibodies bound to the spotted denatured protein or to any of the peptides derived from the human IL-10Ra extracellular domain or the irrelevant peptide.

Ac-SVASRSNKGM-NH2 = target: T2, Ac-SVASRSNKGM-NH2 (human); assay: dot blot on PVDF or nitrocellulose membrane
T2 peptide: Ac-SVASRSNKGM-NH2
Protocol: as §1

Ac-GNFTFTHKKV-NH2 = target: T3, Ac-GNFTFTHKKV-NH2 (human); assay: dot blot on PVDF or nitrocellulose membrane
T3 peptide: Ac-GNFTFTHKKV-NH2
Protocol: as §1

Ac-YHSNGYRARVRA-NH2 = target: T4, Ac-YHSNGYRARVRA-NH2 (human); assay: dot blot on PVDF or nitrocellulose membrane
T4 peptide: Ac-YHSNGYRARVRA-NH2
Protocol: as §1

Ac-SIFSHFREYE-NH2 = target: T5, Ac-SIFSHFREYE-NH2 (human); assay: dot blot on PVDF or nitrocellulose membrane
T5 peptide: Ac-SIFSHFREYE-NH2
Protocol: as §1

[1] = target: T6, cynomolgus macaque IL-10Rα extracellular domain fused to the Fc portion of human IgG1 (cynomolgus macaque); assay: ELISA, coated cynomolgus IL-10Rα:hFc
T6 construct: The entry includes the signal peptide; also called cynomolgus IL-10Rα:hFc; cyIL-10Rα
Source text: Titration of anti-IL-10Rα antibodies binding to coated chimp or cynomolgus IL-10Rα:hFc. Binding was detected with anti-human kappa-HRP, anti-mouse IgG-HRP, or anti-rat IgG-HRP. Different anti-rat-IgG HRP and anti-mouse IgG antibodies were used to generate the data in panels A and B. The nature of these secondary antibodies can affect the results and lead to different maximum binding (BMAX). The BMAX from these studies are described in Table 5.
IL-10Rα Specific Antibody Detection ELISA: Antibody titers, specificity, and production by hybridomas were determined by ELISA. In brief, 96 well flat bottom Maxisorb plates were coated with 50 μl of hIL-10Rα (R&D Systems, Minneapolis, Minn.) at 1 μg/ml in carbonate buffer (pH 9.4) overnight at 4° C. or at 37° C. for 1 hour. After washing three times with PBS/0.05% Tween 20, plates were blocked with Superblock blocking buffer in TBS (Pierce) at room temperature for 30 minutes. The serum, supernatant, or purified antibody was diluted in blocking buffer, added to the wells, and the plates were incubated for 1 hour at room temperature. The plates were washed 3 times with PBS/0.05% Tween 20 and peroxidase-conjugated goat anti-human IgG (Fcγ specific), anti-rat IgG, or anti-mouse IgG detection antibodies (Jackson Immunoresearch) were added at a dilution of 1:5000. Multiple lots of anti-rat and anti-mouse IgG antibodies were used in different assays. […] Following a 1 hour incubation at room temperature, the plates were washed and the TMB (Sigma) substrate was added and incubated at room temperature for 5 to 10 minutes. The reaction was stopped with H₂SO₄ (LabChem) and the optical density was measured at 450 nm by a microplate reader. A second ELISA protocol using soluble human, chimp and cynomolgus IL-10Rα:hFc recombinant proteins as the coating antigens was also employed. In this assay, binding of specific human IgG were detected with a peroxidase labeled sheep anti-human kappa antibody (The Binding Site, Birmingham, UK).

[2] = target: T7, mouse IL-10Rα on splenocytes (mouse, UniProt Q61727 17-575); assay: flow cytometry on splenocytes
T7 construct: whole, on cells
T7 sequence (looked up): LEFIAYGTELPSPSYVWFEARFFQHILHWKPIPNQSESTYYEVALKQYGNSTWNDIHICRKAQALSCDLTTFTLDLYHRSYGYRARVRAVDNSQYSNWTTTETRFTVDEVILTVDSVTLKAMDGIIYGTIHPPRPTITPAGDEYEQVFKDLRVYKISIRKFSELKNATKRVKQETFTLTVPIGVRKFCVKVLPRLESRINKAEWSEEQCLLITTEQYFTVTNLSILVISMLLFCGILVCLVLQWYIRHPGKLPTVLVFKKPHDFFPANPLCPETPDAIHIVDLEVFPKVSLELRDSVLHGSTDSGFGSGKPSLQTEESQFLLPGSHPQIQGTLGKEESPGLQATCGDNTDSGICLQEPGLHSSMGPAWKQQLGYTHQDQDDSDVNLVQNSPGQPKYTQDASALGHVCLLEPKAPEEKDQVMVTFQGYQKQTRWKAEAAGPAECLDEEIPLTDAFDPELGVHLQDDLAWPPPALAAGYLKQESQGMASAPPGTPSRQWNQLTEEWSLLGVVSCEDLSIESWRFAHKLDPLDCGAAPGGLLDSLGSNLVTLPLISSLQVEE

[3] = target: T8, human IL-10Rα extracellular domain fused to the Fc portion of human IgG1 (human); assay: ELISA, coated human IL-10Rα:hFc
T8 construct: also called hIL-10Rα:hFc; human IL-10Rα:hFc
Source text: FIGS. 2A-2B show relative binding affinity of anti-human IL-10R antibodies for human IL-10Rα. A) Titration of anti-IL-10Rα antibodies binding to coated human IL-10Rα:hFc. Binding was detected with anti-human kappa-HRP, anti-mouse IgG-HRP, or anti-rat IgG-HRP. […] RPMI-8226 cells were labeled with anti-human IL-10Rα antibodies at various concentrations and detected with anti-human IgG-PE. The commercial rat anti-human IL-10Rα antibody 3F9 was detected with anti-rat IgG-PE. The geometric mean fluorescence intensity (geo mean) data are shown.
IL-10Rα Specific Antibody Detection ELISA: Antibody titers, specificity, and production by hybridomas were determined by ELISA. In brief, 96 well flat bottom Maxisorb plates were coated with 50 μl of hIL-10Rα (R&D Systems, Minneapolis, Minn.) at 1 μg/ml in carbonate buffer (pH 9.4) overnight at 4° C. or at 37° C. for 1 hour. After washing three times with PBS/0.05% Tween 20, plates were blocked with Superblock blocking buffer in TBS (Pierce) at room temperature for 30 minutes. […] The reaction was stopped with H₂SO₄ (LabChem) and the optical density was measured at 450 nm by a microplate reader. […] In this assay, binding of specific human IgG were detected with a peroxidase labeled sheep anti-human kappa antibody (The Binding Site, Birmingham, UK).

Row | Binder | binding result (Ac-TVTNTRFSVD-NH2) | binding result (Ac-SVASRSNKGM-NH2) | binding result (Ac-GNFTFTHKKV-NH2) | binding result (Ac-YHSNGYRARVRA-NH2) | binding result (Ac-SIFSHFREYE-NH2) | BMAX [1] [OD] | binding result [2] | fold higher relative binding affinity than 37607 [3] [fold]
1 | 136C5 (antibody, V domains shown, Hybridoma antibody, human IgG1, kappa light chain; also called human anti-human IL-10Rα monoclonal antibody 136C5; hybridoma deposit PTA-9131) VH: EVQLVESGGGLVQPGGSLRLSCAASGFTFSSYSMNWVRQAPGKGLEWVSYISTGSSTIYYADSVKGRFTISRDNAKNSLYLQMNSLRDEDTAVYYCARENYYGSGSYEDYFDYWGQGTLVTVSS VL: EIVLTQSPATLSLSPGERATLSCRASQSVSSYLAWYQQKPGQAPRLLIYDASNRATGIPARFSGSGSGTDFTLTISSLEPEDFAVYYCQQRSNWPIFTFGPGTKVDIK | no binding (tested: 5 µg/spot) | no binding (tested: 5 µg/spot) | no binding (tested: 5 µg/spot) | no binding (tested: 5 µg/spot) | no binding (tested: 5 µg/spot) | 1.64 | no binding | ~3
2 | 136C8 (antibody, V domains shown, Hybridoma antibody, human IgG2, kappa light chain; also called human anti-human IL-10Rα monoclonal antibody 136C8; hybridoma deposit PTA-9132) VH: EVQLVESGGGLVQPGGSLRLSCAASGFTFSSYSMNWVRQAPGKGLEWVSYISTRSSTIYYADSVKGRFTISRDNAKNSLYLQMNSLRDEDTAVYYCARENYYGSGSYEDYFDYWGQGTLVTVSS VL: EIVLTQSPATLSLSPGERATLSCRASQSVSSYLAWYQQKPGQAPRLLIYDASNRATGIPARFSGSGSGTDFTLTISSLEPEDFAVYYCQQRSNWPIFTFGPGTKVDIK | no binding (tested: 5 µg/spot) | no binding (tested: 5 µg/spot) | no binding (tested: 5 µg/spot) | no binding (tested: 5 µg/spot) | no binding (tested: 5 µg/spot) | 1.66 | no binding | ~3
